Laboratory results published in patent US20250025549A1.

Legend:
[1] = biological target: dipeptidyl peptidase IV (DPP4), the MERS-CoV receptor, His-tagged (human) (UniProt P27487)
[2] = biological target: dipeptidyl peptidase IV (DPP4), the MERS-CoV receptor, His-tagged (human) (UniProt P27487); assay: ELISA, spike coated, His-tagged hDPP4 titrated

Sequence of dipeptidyl peptidase IV (DPP4), the MERS-CoV receptor, His-tagged (human) (P27487 29-766 limits assumed): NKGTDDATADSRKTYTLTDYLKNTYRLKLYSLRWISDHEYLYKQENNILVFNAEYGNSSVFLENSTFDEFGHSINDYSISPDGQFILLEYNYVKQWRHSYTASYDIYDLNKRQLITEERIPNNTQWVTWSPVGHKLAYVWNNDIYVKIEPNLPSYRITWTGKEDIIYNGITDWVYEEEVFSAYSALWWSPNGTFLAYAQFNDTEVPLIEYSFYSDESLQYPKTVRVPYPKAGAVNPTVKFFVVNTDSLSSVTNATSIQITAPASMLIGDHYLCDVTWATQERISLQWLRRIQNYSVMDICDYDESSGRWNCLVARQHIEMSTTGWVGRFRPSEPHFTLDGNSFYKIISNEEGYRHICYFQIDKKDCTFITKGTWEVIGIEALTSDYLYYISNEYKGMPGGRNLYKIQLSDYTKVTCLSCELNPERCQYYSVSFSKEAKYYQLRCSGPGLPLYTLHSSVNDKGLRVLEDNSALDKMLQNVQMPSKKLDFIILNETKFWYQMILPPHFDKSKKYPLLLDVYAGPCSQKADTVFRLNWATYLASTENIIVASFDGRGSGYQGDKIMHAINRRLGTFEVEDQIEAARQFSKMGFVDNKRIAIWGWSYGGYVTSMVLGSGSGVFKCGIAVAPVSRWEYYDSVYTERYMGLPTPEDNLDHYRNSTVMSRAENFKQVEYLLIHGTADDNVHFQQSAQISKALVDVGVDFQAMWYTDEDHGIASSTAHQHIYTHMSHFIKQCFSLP

BV2373 CoV S polypeptide (SEQ ID NO: 87) (from UniProt P0DTC2 14-1273) (other; other documents disagree on this pair)
IC50 [1]: > 5 µg/mL | EC50 [2]: > 5 µg/mL
